Results published in paper PMC3968025, “Metabolic and Target-Site Mechanisms Combine to Confer Strong DDT Resistance in Anopheles gambiae” (PLoS ONE, 2014).

Target: the molecule itself
Test: crystal structure; ZAN/U:GSH crystals, hanging drops at 22°C, 30% PEG 6000, 0.1 M Bis-Tris pH 6.5, 1 mM β-ME; soaked with DDE (not seen in the maps); 2.3 Å; two biological dimers in the asymmetric unit

B1: GSTE2 ZAN/U variant (epsilon-class glutathione-S-transferase GSTE2 of Anopheles gambiae, allele ZAN/U 1C) (enzyme, UniProt Q7PVS6 1-221, looked up)
chain: MSNLVLYTLHLSPPCRAVELTAKALGLELEQKTINLLTGDHLKPEFVKLNPQHTIPVLDDNGTIITESHAIMIYLVTKYGKDDSLYPKDPVKQARVNSALHFESGVLFARMRFTFERILFFGKSDIPEDRVEYVQKSYELLEDTLVDDFVAGPTMTIADFSCISTISSIMGVVPLEQSKHPRIYAWIDRLKQLPYYEEANGGGGTDLGKFVLAKKEENAKA
notes: Cloned from full-length cDNA; the model runs to Ala221; One of GenBank JX840597-JX840599; Crystallised as the complex with glutathione (GSH, 1:1.2 molar ratio); biological dimer; Natural allelic variant; I114T is written against the Kisumu (ancestral) allele; also called Gste2-114T; ZAN/U:GSH; not shown: His6, N-terminal, cleaved; SUMO, N-terminal, cleaved
  stoichiometry N: 2
